Data: patent US6967029

Key:
[1] = target: endogenous c-kit of COS-1 cells (cells transfected with V19.8 alone); assay: 1.6 nM human 125I-SCF^1-164 on membrane fractions of COS-1 cells transfected with V19.8 alone
[2] = target: human recombinant c-kit ligand binding plus transmembrane domains (hckit-LT1) expressed in COS-1 cells (human) (UniProt P10721); assay: 1.6 nM human 125I-SCF^1-164 on membrane fractions of COS-1 cells transfected with V19.8:hckit-LT1
[3] = target: endogenous c-kit of COS-1 cells (cells transfected with V19.8 alone); assay: 1.6 nM human 125I-SCF^1-164 + 320 nM unlabelled human SCF^1-164, membranes of COS-1 cells transfected with V19.8 alone
[4] = target: human recombinant c-kit ligand binding plus transmembrane domains (hckit-LT1) expressed in COS-1 cells (human) (UniProt P10721); assay: 1.6 nM human 125I-SCF^1-164 + 320 nM unlabelled human SCF^1-164, membranes of COS-1 cells transfected with V19.8:hckit-LT1
[5] = target: endogenous c-kit of COS-1 cells (cells transfected with V19.8 alone); assay: 1.6 nM rat 125I-SCF^1-164 on membrane fractions of COS-1 cells transfected with V19.8 alone
[6] = target: human recombinant c-kit ligand binding plus transmembrane domains (hckit-LT1) expressed in COS-1 cells (human) (UniProt P10721); assay: 1.6 nM rat 125I-SCF^1-164 on membrane fractions of COS-1 cells transfected with V19.8:hckit-LT1
[7] = target: endogenous c-kit of COS-1 cells (cells transfected with V19.8 alone); assay: 1.6 nM rat 125I-SCF^1-164 + 320 nM unlabelled rat SCF^1-164, membranes of COS-1 cells transfected with V19.8 alone
[8] = target: human recombinant c-kit ligand binding plus transmembrane domains (hckit-LT1) expressed in COS-1 cells (human) (UniProt P10721); assay: 1.6 nM rat 125I-SCF^1-164 + 320 nM unlabelled rat SCF^1-164, membranes of COS-1 cells transfected with V19.8:hckit-LT1

Row | Substance | CPM Bound [1] | CPM Bound [2] | CPM Bound [3] | CPM Bound [4] | CPM Bound [5] | CPM Bound [6] | CPM Bound [7] | CPM Bound [8]
1 | human SCF^1-164 (radioiodinated; Examples 13 and 15) (from UniProt P21583 26-189) (ligand) | 2160 cpm | 59400 cpm | 2150 cpm | 2380 cpm | – | – | – | –
2 | rat SCF^1-164 (radioiodinated; Example 15) (from UniProt P21581 26-189) (ligand) | – | – | – | – | 1100 cpm | 70000 cpm | 550 cpm | 1100 cpm
